Measured values reported in the supplement of paper PMC10567573.

B1: KCNG1 (parent)
chain: AVNLSVSTLPSLREEEEQVRAHAP

Variants of: B1
Test: protein stability index of a GFP-peptide fusion (GPS, HEK-293T) (PSI 1-6); higher = more stable
Conditions: c terminus: a fixed tail appended
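Also: lentivirally expressed fusions sorted by FACS into six bins by GFP to DsRed ratio, PSI derived from sequencing read proportions per bin multiplied by bin number.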

Variant	protein stability index
L12D	5.41
L12F	4.59
L12R	5.35
L12N	5.11
L12C	4.42
L12A	5
L12E	5.62
L12P	5.13
L12Y	4.77
L12Q	5.19
L12V	4.81
L12I	4.79
L12T	5.38
L12H	5.17
L12K	4.67
L12G	5.21
L12W	4.13
L12M	4.88
L12S	5.33
V6A	5.14
V6C	4.75
V6K	5.01
V6S	5.18
V6W	4.53

Variant	protein stability index
V6R	5.02
V6N	5.18
V6F	4.59
V6E	5.58
V6M	4.98
V6Q	5.24
V6Y	4.69
V6H	5.3
V6T	5.08
V6G	4.8
V6D	5.34
V6L	4.69
V6I	5.08
V6P	5.45
E15Y	3.64
E15A	4.2
E15C	4.23
E15F	3.52
E15R	4.76
E15M	4.29
E15I	3.92
E15K	4.82
E15V	4.06
E15H	4.42

Variant	protein stability index
E15T	4.52
E15D	5.05
E15P	4.93
E15S	4.8
E15Q	4.79
E15G	4.59
E15N	4.61
E15W	3.52
E15L	3.42
S5M	4.49
S5H	4.71
S5G	4.93
S5N	4.03
S5T	4.59
S5P	5.36
S5F	3.79
S5L	3.82
S5A	5.48
S5C	4.65
S5W	3.31
S5Q	4.2
S5R	3.29
S5D	5.24
S5Y	4.59

Variant	protein stability index
S5E	5.33
S5V	4.1
S5I	3.86
S5K	4.47
E14D	4.96
E14C	4.16
E14Y	4.34
E14R	4.24
E14S	4.98
E14V	4.39
E14G	4.56
E14T	4.54
E14L	4.51
E14P	4.8
E14F	3.56
E14W	3.9
E14N	4.46
E14A	4.39
E14K	4.3
E14M	4.11
E14Q	4.87
E14I	4.37
E14H	4.56
E17C	4.2

Variant	protein stability index
E17S	4.61
E17H	4.43
E17T	4.32
E17W	3.08
E17A	4.67
E17Y	3.6
E17V	4.38
E17Q	4.69
E17F	3.23
E17M	4.46
E17N	4.73
E17I	4.23
E17G	4.64
E17L	4.11
E17K	4.43
E17R	4.61
E17P	4.71
E17D	4.73
Q18W	4.05
Q18P	5.04
Q18N	4.95
Q18A	4.75
Q18R	4.55
Q18F	4.17

Variant	protein stability index
Q18D	5.2
Q18C	4.98
Q18S	5.26
Q18I	4.82
Q18T	4.99
Q18V	4.55
Q18H	4.67
Q18G	5.17
Q18E	5.57
Q18Y	4.42
Q18K	4.75
Q18L	5
Q18M	4.77
L9Q	4.88
L9C	4.66
L9K	5.19
L9R	5.28
L9H	4.81
L9S	5.09
L9P	5.26
L9Y	4.47
L9W	3.81
L9M	4.63
L9N	5.42

Variant	protein stability index
L9A	5.36
L9V	4.73
L9T	5.08
L9I	4.14
L9G	4.83
L9F	5.08
L9D	5.49
L9E	4.67
R20V	4.94
R20T	5.27
R20E	5.63
R20G	5.48
R20S	4.75
R20C	4.79
R20Y	4.75
R20L	5.37
R20H	5.06
R20I	5.14
R20M	5.2
R20W	4.55
R20F	4.48
R20K	5.17
R20D	5.96
R20Q	5.12

Variant	protein stability index
R20P	5.17
R20N	5.3
R20A	5.56
A21E	4.52
A21M	4.27
A21N	4.28
A21D	5.32
A21G	5.13
A21L	4.71
A21K	4.64
A21C	4.74
A21H	4.68
A21I	4.11
A21F	3.75
S11W	4.35
S11T	4.84
S11N	4.95
S11P	4.93
S11Y	4.54
S11H	5.07
S11V	4.83
S11E	5.14
S11C	4.3
S11G	3.95

Variant	protein stability index
S11D	5.02
S11F	4.45
S11A	5.43
S11Q	5.01
S11L	4.75
S11K	5.13
S11R	4.88
S11I	4.79
S11M	4.54
T8W	3.11
T8A	5.28
T8L	4.55
T8P	5.14
T8M	4.53
T8N	5.14
T8E	4.95
T8I	4.12
T8C	4.67
T8H	4.83
T8Y	4.19
T8F	3.42
T8G	5.15
T8V	4.45
T8S	4.82

Variant	protein stability index
T8K	4.61
T8R	4.94
T8D	5.36
T8Q	5.07
S7Y	4.19
S7L	3.62
S7Q	4.91
S7I	3.67
S7F	4.11
S7T	4.95
S7H	5.03
S7K	4.94
S7W	3.68
S7N	5.02
S7V	4.71
S7M	4.53
S7D	4.8
S7C	4.41
S7A	4.75
S7P	5.09
S7R	4.93
S7E	4.47
S7G	5.18
R13E	5.25

Variant	protein stability index
R13W	4.77
R13Q	4.91
R13P	5.67
R13Y	4.67
R13T	5.25
R13I	4.68
R13V	4.81
R13M	5.03
R13C	4.99
R13S	5.2
R13D	5.15
R13F	4.78
R13H	4.99
R13K	4.85
R13N	5.3
R13G	4.55
R13L	4.77
R13A	5
L4W	4.45
L4C	4.88
L4K	5.24
L4T	4.9
L4A	4.86
L4N	5.55

Variant	protein stability index
L4D	5.58
L4S	5.05
L4G	5.24
L4F	4.51
L4V	5.01
L4P	5.32
L4Q	5.44
L4E	5.73
L4R	5.03
L4I	4.8
L4Y	4.98
L4M	5.05
L4H	5.72
P10H	4.63
P10N	4.7
P10K	4.74
P10G	4.71
P10E	5.04
P10Q	5.05
P10L	4.06
P10Y	4.03
P10S	4.62
P10F	3.5
P10V	4.61

Variant	protein stability index
P10I	3.67
P10T	4.49
P10W	4.05
P10A	4.59
P10M	4.28
P10D	5.06
P10C	4.35
P10R	4.29
V19N	5.09
V19K	5.07
V19I	5.15
V19H	5.08
V19W	4.46
V19G	5.21
V19L	5.14
V19F	4.62
V19E	5.3
V19M	4.85
V19S	5.33
V19R	4.73
V19C	4.84
V19Q	5.24
V19Y	4.71
V19P	5.36

Variant	protein stability index
V19D	5.33
V19T	4.9
V19A	4.98
E16A	4.48
E16R	4.18
E16C	4.26
E16G	4.67
E16V	4.32
E16Q	4.27
E16D	5.26
E16M	3.56
E16N	4.26
E16P	3.96
E16T	4.12
E16I	3.27
E16Y	3.63
E16K	4.46
E16H	4.49
E16F	3.59
E16L	3.82
E16S	4.27
E16W	3.38
